In the Human Domainome abundance scans (Beltran et al. 2025) one finds abundance fitness data, which are given here for 125 variants.

± gives the uncertainty stated by the source.

B1: Membrane-associated guanylate kinase, WW and PDZ domain-containing protein 2, residues 296 to 340; numbered along this chain, Q86UL8 (parent)
chain: EDNEEPDPLPDNWEMAYTEKGEVYFIDHNTKTTSWLDPRLAKKAK

Variants of B1 are the subject of this series. Put plainly: abundance fitness (aPCA) (normalised: wild type 0, dead -1); higher = more abundant; growth selection in yeast, the domain comes from the species named. To be noted: Homo sapiens.
For the variant T33D, the abundance fitness was -0.848 ± 0.067.

In the case of T33N, the abundance fitness was -0.341 ± 0.077.

Turning to L40K, the abundance fitness was 0.091 ± 0.077.

L40S: the abundance fitness was -0.022 ± 0.057.

Consider L40R, for which the abundance fitness is -0.002 ± 0.053.

Consider L40V, for which the abundance fitness turned out to be 0.043 ± 0.045.

In the case of L40Q, the abundance fitness worked out at 0.024 ± 0.083.

As to L40E, the abundance fitness came to 0.034 ± 0.088.

Consider L40W, for which the abundance fitness was -0.133 ± 0.059.

For the variant L40A, the abundance fitness is 0.059 ± 0.068.

Regarding L40P, the abundance fitness came out at 0.043 ± 0.056.

As for L40G, the abundance fitness came out at 0.076 ± 0.052.

Turning to L40T, the abundance fitness was determined as 0.012 ± 0.11.

On to L40N, for which the abundance fitness amounted to 0.117 ± 0.1.

In the case of R39Y, the abundance fitness is -0.769 ± 0.15.

On to R39W, for which the abundance fitness is -0.607 ± 0.059.

Take R39N: the abundance fitness is -0.289 ± 0.15.

For R39C, the abundance fitness was -0.478 ± 0.08.

As for R39K, the abundance fitness was -0.411 ± 0.058.

Regarding R39M, the abundance fitness is -0.599 ± 0.056.

On to R39S, for which the abundance fitness is -0.395 ± 0.044.

As to R39T, the abundance fitness was -0.366 ± 0.1.

Turning to R39A, the abundance fitness is -0.514 ± 0.049.

Take R39Q: the abundance fitness was -0.497 ± 0.054.

Regarding R39L, the abundance fitness is -0.63 ± 0.046.

Turning to R39V, the abundance fitness was -0.52 ± 0.045.

For the variant R39G, the abundance fitness was -0.46 ± 0.06.

For R39H, the abundance fitness is -0.419 ± 0.13.

In the case of R39P, the abundance fitness is -0.633 ± 0.069.

As for A44L, the abundance fitness is -0.111 ± 0.063.

A44R: the abundance fitness was -0.076 ± 0.056.

As for A44V, the abundance fitness was -0.009 ± 0.064.

A44W: the abundance fitness was -0.118 ± 0.087.

For the variant A44E, the abundance fitness worked out at 0.07 ± 0.064.

Regarding A41G, the abundance fitness turned out to be 0.138 ± 0.12.

Take A41F: the abundance fitness is -0.113 ± 0.085.

Take A41R: the abundance fitness was -0.058 ± 0.077.

Consider A41L, for which the abundance fitness is -0.297 ± 0.29.

Regarding N29P, the abundance fitness was -0.673 ± 0.079.

For the variant N29Y, the abundance fitness is -0.122 ± 0.13.

For the variant N29A, the abundance fitness worked out at 0.022 ± 0.069.

As to N29S, the abundance fitness was -0.011 ± 0.06.

On to N29D, for which the abundance fitness was -0.109 ± 0.089.

Consider N29E, for which the abundance fitness is -0.081 ± 0.091.

On to N29Q, for which the abundance fitness was -0.13 ± 0.12.

As for N29T, the abundance fitness was -0.02 ± 0.058.

Take N29V: the abundance fitness is -0.051 ± 0.069.

Turning to N29R, the abundance fitness is -0.082 ± 0.05.

For the variant N29W, the abundance fitness is -0.151 ± 0.056.

For N29G, the abundance fitness is -0.019 ± 0.049.

With N29L, the abundance fitness was -0.059 ± 0.05.

As for D37K, the abundance fitness is -0.246 ± 0.065.

As for D37R, the abundance fitness is -0.152 ± 0.039.

D37W: the abundance fitness was -0.671 ± 0.045.

With D37S, the abundance fitness is -0.456 ± 0.041.

Consider D37V, for which the abundance fitness was -0.595 ± 0.048.

D37F: the abundance fitness is -0.846 ± 0.14.

For the variant D37Q, the abundance fitness was -0.607 ± 0.087.

For D37M, the abundance fitness was -0.533 ± 0.071.

For D37H, the abundance fitness was -0.623 ± 0.2.

Take D37N: the abundance fitness is -0.184 ± 0.4.

Regarding D37A, the abundance fitness is -0.431 ± 0.042.

Take D37Y: the abundance fitness was -0.697 ± 0.13.

D37E: the abundance fitness was -0.569 ± 0.073.

For the variant D37I, the abundance fitness is -0.832 ± 0.075.

Turning to D37G, the abundance fitness was -0.51 ± 0.047.

D37L: the abundance fitness was -0.699 ± 0.042.

D37T: the abundance fitness was -0.675 ± 0.055.

Regarding D37P, the abundance fitness was -0.456 ± 0.064.

With S34A, the abundance fitness is -0.43 ± 0.064.

For S34G, the abundance fitness was -0.463 ± 0.076.

S34V: the abundance fitness was -0.758 ± 0.12.

For S34L, the abundance fitness is -1.14 ± 0.15.

For the variant S34C, the abundance fitness was -0.181 ± 0.1.

For the variant S34R, the abundance fitness is -0.629 ± 0.073.

Regarding S34E, the abundance fitness was -0.826 ± 0.12.

For the variant S34W, the abundance fitness is -0.784 ± 0.26.

As for P38V, the abundance fitness is -0.979 ± 0.26.

For H28V, the abundance fitness was -0.407 ± 0.063.

Take H28W: the abundance fitness is -0.334 ± 0.044.

Regarding H28R, the abundance fitness was -0.243 ± 0.045.

For H28Y, the abundance fitness is -0.525 ± 0.079.

In the case of H28Q, the abundance fitness is -0.267 ± 0.06.

T30R: the abundance fitness was -0.183 ± 0.038.

Regarding T30C, the abundance fitness was -0.185 ± 0.061.

As for T30V, the abundance fitness is -0.386 ± 0.049.

With T30A, the abundance fitness is -0.107 ± 0.042.

For T30S, the abundance fitness stood at 0.122 ± 0.075.

T30G: the abundance fitness was -0.256 ± 0.037.

As for T30M, the abundance fitness is -0.388 ± 0.34.

Consider T30D, for which the abundance fitness is -0.324 ± 0.088.

For the variant T30Q, the abundance fitness is -0.155 ± 0.079.

For T30E, the abundance fitness was -0.156 ± 0.067.

Turning to T30L, the abundance fitness was -0.221 ± 0.058.

For the variant T30F, the abundance fitness was -0.575 ± 0.13.

With T30P, the abundance fitness was -1.17 ± 0.076.

K42N: the abundance fitness stood at 0.032 ± 0.18.

Take K42P: the abundance fitness worked out at 0.128 ± 0.066.

As to K42T, the abundance fitness is -0.148 ± 0.15.

As for K42R, the abundance fitness stood at 0.021 ± 0.046.

On to K42W, for which the abundance fitness worked out at 0.089 ± 0.094.

As for K42A, the abundance fitness was found to be 0.085 ± 0.051.

In the case of K42M, the abundance fitness came to 0.011 ± 0.071.

In the case of K42G, the abundance fitness came out at 0.014 ± 0.046.

K42E: the abundance fitness was 0.035 ± 0.062.

As for K42C, the abundance fitness worked out at 0.097 ± 0.077.

Consider K42V, for which the abundance fitness came to 0.079 ± 0.093.

In the case of K42D, the abundance fitness was -0.05 ± 0.18.

As for K42L, the abundance fitness is 0.046 ± 0.22.

Regarding K42Y, the abundance fitness is -0.033 ± 0.11.

Consider W35C, for which the abundance fitness is -0.527 ± 0.072.

As to W35Q, the abundance fitness is -0.365 ± 0.065.

On to W35D, for which the abundance fitness was -0.547 ± 0.1.

Turning to W35A, the abundance fitness is -0.489 ± 0.042.

In the case of W35R, the abundance fitness was -0.362 ± 0.043.

For the variant W35T, the abundance fitness was -0.451 ± 0.089.

Take W35S: the abundance fitness was -0.436 ± 0.054.

In the case of W35V, the abundance fitness is -0.473 ± 0.063.

As for W35M, the abundance fitness was -0.247 ± 0.054.

As to W35F, the abundance fitness is -0.083 ± 0.1.

For the variant W35P, the abundance fitness was -0.668 ± 0.089.

Consider W35I, for which the abundance fitness was -0.492 ± 0.055.

For W35G, the abundance fitness was -0.523 ± 0.039.

For the variant W35Y, the abundance fitness was -0.036 ± 0.068.

Turning to W35K, the abundance fitness is -0.494 ± 0.078.
